Measurements taken from the RNAGym collection of RNA variant scans (doi:10.7554/elife.80360).

B1: Hairpin Ribozyme (parent)
chain: GUCCUCUUUCACGUGCGCGUGAAAGAGAGAAGUGAACCAGAGAAACACACGUUGUGGUAUAUUACCUGGUA

Variants of: B1
Test: self-cleavage, relative activity (ratio to wild type); higher = more cleavage; co-transcriptional

Row | Variant | self-cleavage
1 | G17C G68A | 0.196
2 | C18A G34U | 1.46
3 | G19A U53A | 0.919
4 | C18U C46G | 0.145
5 | G17C U58A | 0.453
6 | G17U U62G | 0.122
7 | G17U U62A | 0.198
8 | G19A A41U | 1.11
9 | C18G G27U | 0.199
10 | G17A U67A | 0.255
11 | G17A U67G | 0.243
12 | C18U G40C | 0.0598
13 | G17U C38A | 0.136
14 | G17C G32C | 0.183
15 | G17C A24G | 0.88
16 | G17C A24U | 0.73
17 | G19A G69C | 0.129
18 | G19A G69A | 0.347
19 | C18U C38A | 0.111
20 | G19A G32A | 0.131
21 | G19A G32U | 0.175
22 | G19A A44U | 0.269
23 | G19A A44G | 0.137
24 | G17U A61G | 0.117

Row | Variant | self-cleavage
25 | C18U A49U | 0.141
26 | C18U U67C | 0.249
27 | C18U U67A | 0.109
28 | C18A A47G | 0.216
29 | C18U A43G | 0.103
30 | C18G G54C | 0.471
31 | C18U A47C | 0.474
32 | C18U G19C | 0.89
33 | C18U A35G | 0.986
34 | C18U A35C | 0.968
35 | G17A U52C | 1.11
36 | G17A U52G | 0.982
37 | G19A A59C | 0.199
38 | C18A A28U | 0.844
39 | C18G A22U | 0.801
40 | G17C U53G | 0.41
41 | G17U C46U | 0.14
42 | G19A G57C | 0.138
43 | G19A G57A | 0.152
44 | G17U U20G | 0.642
45 | G17U U20C | 1.26
46 | G19C A31U | 0.0995
47 | G19C A31G | 0.524
48 | C18U A41C | 1.09

Row | Variant | self-cleavage
49 | C18A U60C | 1.1
50 | G19A U62G | 0.103
51 | C18G C66A | 0.194
52 | C18G U33A | 0.169
53 | G17U A35G | 1.02
54 | G17U A35C | 1.03
55 | G19C A61U | 0.25
56 | G19C A61G | 0.144
57 | C18U A36G | 1.15
58 | G19C A59G | 0.153
59 | G17U U52C | 0.816
60 | G19A C50A | 0.278
61 | G19C A43U | 0.121
62 | G19C A45G | 0.277
63 | G19C A45C | 0.114
64 | C18G G68A | 0.268
65 | C18A G40U | 0.174
66 | C18A G40A | 0.305
67 | C18U U55A | 0.128
68 | C18A A64U | 0.158
69 | C18A A64G | 0.61
70 | C18G A71G | 0.932
71 | C18G G40A | 0.344
72 | G17U U53A | 0.841

Row | Variant | self-cleavage
73 | G17U U53G | 0.954
74 | G17C U67C | 0.197
75 | C18U U20C | 1.06
76 | C18U U20A | 0.848
77 | G17C A23G | 0.458
78 | G19C A35C | 0.832
79 | G19C A35U | 0.574
80 | G17C A64U | 0.176
81 | G17C A64G | 0.592
82 | C18G U53A | 1.02
83 | C18G U53C | 0.806
84 | C18G U53G | 0.819
85 | G19A A36U | 0.542
86 | G19A A36C | 0.511
87 | G19C | 0.85
88 | G19A | 0.853
89 | C18G A35G | 1.24
90 | G19A G27U | 0.237
91 | G17C A49U | 0.263
92 | C18A G19C | 0.802
93 | C18U G25U | 0.69
94 | G17U G32A | 0.122
95 | G19A G54C | 0.403
96 | C18G | 0.931

Row | Variant | self-cleavage
97 | C18A | 1.06
98 | C18U | 1.06
99 | G17C G42A | 0.176
100 | G19A U70C | 0.922
101 | G17U A71U | 0.815
102 | C18G A31C | 0.0659
103 | G17C A39C | 0.528
104 | G17C A39U | 0.35
105 | C18U U33A | 0.242
106 | C18G A45G | 0.0821
107 | G17U U70G | 0.739
108 | G17U U70C | 0.859
109 | C18G A59U | 0.239
110 | C18G A59G | 0.284
111 | G19A A24U | 0.629
112 | G19C A44G | 0.0921
113 | G17C A35U | 0.44
114 | G19A A28G | 0.934
115 | G19A A28U | 0.408
116 | G17A U53C | 1.01
117 | G17A U53A | 1.36
118 | G17A U53G | 0.932
119 | C18G G51U | 0.953
120 | C18G G51A | 0.933

Row | Variant | self-cleavage
121 | G19C A30G | 0.187
122 | C18G G34A | 1.23
123 | C18A C65U | 0.254
124 | G17C C37A | 0.287
125 | C18A C48U | 0.214
126 | C18U C66A | 0.25
127 | G19A C38U | 0.508
128 | G17U G29U | 0.128
129 | G17U G29A | 0.105
130 | C18G G29U | 0.201
131 | G17C A31G | 0.425
132 | C18G C46G | 0.0987
133 | C18G C46A | 0.0797
134 | C18A U52C | 1.05
135 | C18G A30G | 0.131
136 | C18G U58A | 0.632
137 | C18G U58G | 0.89
138 | C18U G69C | 0.334
139 | C18U G69U | 0.272
140 | G17C G40U | 0.144
141 | G17U C37A | 0.26
142 | C18U U62C | 0.393
143 | C18G A41C | 0.952
144 | C18U C48G | 0.0965

Row | Variant | self-cleavage
145 | G17C U63G | 0.125
146 | G17U G56U | 0.112
147 | G17A G68C | 0.232
148 | G17C A43U | 0.0572
149 | G19A C37G | 0.188
150 | G17U A24C | 0.848
151 | G19C A28G | 1.15
152 | G19C A28C | 0.304
153 | C18A G57A | 0.209
154 | C18A G57C | 0.187
155 | G17U A26C | 0.682
156 | G19A C46G | 0.176
157 | C18G G69A | 0.378
158 | G19A A39G | 0.274
159 | G19A A39C | 0.437
160 | C18G U20C | 0.923
161 | G19A G68U | 0.242
162 | C18A G25U | 0.761
163 | C18A G25C | 0.58
164 | C18U G57A | 0.188
165 | C18U G57U | 0.234
166 | C18U A30C | 0.21
167 | C18U A30G | 0.151
